# In patent US20210032351A1 (XDCEXPLORER SHANGHAI, published 2021):
# What was measured:
# [1] = target: T1, biotin-labeled recombinant EGFRvIII protein (UniProt P00533 25-645, biotin-labeled); assay: competitive ELISA; competitor Control antibody 01
# T1 construct: the construct is not described
# Description: (§1) The purified antibodies to be tested are diluted with PBS to 1 μg/mL, coated onto a 96-well high-adsorption ELISA plate at 50 μL/well at 4° C. overnight, and then blocked with 250 μL of the blocking solution [PBS containing 0.01% (v/v) Tween20 and 1% (w/w) BSA] for one hour at room temperature, and each well is added with 0.05 μg/mL of the biotin-labeled recombinant EGFRvIII protein. Simultaneously, 5 μg/mL of the competitive antibody (i.e., the purified EGFRvIII antibody obtained in example 2) is added thereto, and incubated at 25° C.−37° C. for 1 to 2 hours. The plate is washed 3 times with the plate washing solution [PBS containing 0.01% (v/v) Tween20], and added with HRP (horseradish peroxidase) labeled streptavidin (purchased from Sigma). The plate is incubated for 0.5 hour at 37° C., and then washed 3 times with the plate washing solution [PBS containing 0.01% (v/v) Tween20]. The plate is added with 100 μL of TMB substrate/well, incubated for 30 minutes at room temperature, and then added with 100 μL of stopping solution (1.0N HCl)/well. A450 nm value is read using an ELISA plate reader (SpectraMax 384 plus, purchased from Molecular Device), and the results are shown in FIG. 6.
# [2] = target: T2, wild-type human EGFR protein on the surface of cells (A431, HEB, U87MG) (human, UniProt P00533 25-1210); assay: FACS on A431 cells
# T2 construct: whole, on cells; One molecule for all three cell lines; the cell line is named under assay; also called wild-type EGFR
# Description: (§2) The collected cells are suspended to 2×10⁶ cells/mL with an FACS buffer (HBSS+1% BSA, with the percentage being the mass percentage), added to a 96-well FACS reaction plate at 100 μL/well, then added with 100 μL/well of the purified EGFRvIII antibody (samples to be tested) obtained in example 2, and incubated on ice for 2 hours. The plate is centrifugally washed twice with the FACS buffer, added with 100 μL/well of a fluorescence (Alexa 488) labeled secondary antibody (purchased from Invitrogen), and then incubated on ice for 1 hour. The plate is centrifugally washed 3 times with the FACS buffer, added with 100 μL/well of a fixing solution [4% (v/v) paraformaldehyde] for suspending the cells, and centrifugally washed twice with the FACS buffer after 10 minutes. The cells are suspended in 100 μL of the FACS buffer, and the results are detected and analyzed by FACS (FACS Calibur, purchased from BD). Data analysis is performed by using the software (CellQuest) to obtain the mean fluorescence intensity (MFI) of the cells. Data is further analyzed by using the software (GraphPad Prism5) to perform data fitting and calculate EC50. […] A431 cells (human epidermal cell cancer cell lines) have a large amount of wild-type EGFR protein expressed on the surface thereof. […] U87MG cells (human glioma cell lines) have a small amount of wild-type EGFR protein expressed on the surface thereof, while HEB cells (human glioma cell lines) have a high level of wild-type EGFR protein expression on the surface thereof.
# [3] = target: T1, biotin-labeled recombinant EGFRvIII …; assay: competitive ELISA; competitor Murine anti-64F1
# Description: as §1
# [4] = target: T1, biotin-labeled recombinant EGFRvIII …; assay: competitive ELISA; competitor Murine anti-7E5
# Description: as §1
# [5] = target: T3, human EGFRvIII protein on the surface of U87MG-hEGFRvIII cells (human, UniProt P00533 25-1210); assay: immunohistochemical staining, human glioma tissue chip
# T3 construct: whole, on cells; Stably transfected U87MG cells; also called mutant EGFRvIII protein; U87MG-EGFRvIII
# [6] = target: T1, biotin-labeled recombinant EGFRvIII …; assay: competitive ELISA; competitor Murine anti-63A10
# Description: as §1
# [7] = target: T1, biotin-labeled recombinant EGFRvIII …; assay: competitive ELISA; competitor Control antibody 02
# Description: as §1
# [8] = target: T1, biotin-labeled recombinant EGFRvIII …; assay: competitive ELISA; competitor Murine anti-75G7
# Description: as §1
# [9] = target: T3, human EGFRvIII protein on the surface …; assay: FACS on U87MG-hEGFRvIII cells
# Description: as §2, with “The cells are washed twice with the HBSS buffer and are counted, and then the cells are diluted with the HBSS buffer to 2×10⁶ cells/ml, added with 1% goat serum blocking solution, with the percentage being the mass percentage, and incubated on ice for 30 minutes, and then centrifugally washed twice with the HBSS buffer. The collected” for “The collected”
# [10] = target: T4, human wild-type EGFR protein on the cell surface (human, UniProt P00533 25-1210); assay: FACS on A431 cells; A431 cells (large amount of wild-type EGFR on the surface)
# T4 construct: whole, on cells; Endogenous on A431, HEB, U87MG cells and normal human primary hepatocytes; transfected on CHOk1-EGFR cells; The cell is named under assay; also called A431; HEB
# Description: as §2, with “The cells are washed twice with the HBSS buffer and are counted, and then the cells are diluted with the HBSS buffer to 2×10⁶ cells/ml, added with 1% goat serum blocking solution, with the percentage being the mass percentage, and incubated on ice for 30 minutes, and then centrifugally washed twice with the HBSS buffer. The collected” for “The collected”
# [11] = target: T5, human EGFRvIII-hFc protein (human, UniProt P00533 25-645); assay: ELISA, EGFRvIII-hFc coated
# T5 construct: extracellular domain; also called immunogen A; hFc-tagged EGFRvIII protein; not shown: human IgG Fc fragment (hFc) of the pCpC vector
# Description: The purified immunogen A (EGFRvIII-hFc) obtained in example 1 (for the preparation method, see step (I) in example 1) is diluted with PBS to a final concentration of 1.0 μg/mL, and then added to a 96-well ELISA plate at 100 μl/well. The plate is sealed with a plastic film and incubated at 4° C. overnight. The next day, the plate is washed twice with a plate washing solution [PBS+0.01% (v/v) Tween20], and added with a blocking solution [PBS+0.01% (v/v) Tween20+1% (w/w) BSA] for blocking 2 hours at room temperature. […] The plate is incubated for 2 hours at 37° C., and then washed 3 times with the plate washing solution [PBS+0.01% (v/v) Tween20]. The plate is added with an HRP (horseradish peroxidase) labeled secondary antibody (purchased from Sigma), incubated at 37° C. for 2 hours, and then washed 3 times with the plate washing solution [PBS+0.01% (v/v) Tween20]. The plate is added with 100 μl of TMB substrate/well, incubated for 30 minutes at room temperature, and then added with 100 μl of stopping solution (1.0N HCl)/well. A450 nm value is read using an ELISA plate reader (SpectraMax 384plus, purchased from Molecular Device), and the results are shown in FIG. 11 and table 19.
# [12] = target: T6, human EGFRvIII protein on the cell surface (human, UniProt P00533 25-1210); assay: FACS on U87MG-hEGFRvIII cells
# T6 construct: whole, on cells; the cell line is named under assay; also called hEGFRvIII; U87MG-hEGFRvIII
# Description: as §2, with “The cells are washed twice with the HBSS buffer and are counted, and then the cells are diluted with the HBSS buffer to 2×10⁶ cells/ml, added with 1% goat serum blocking solution, with the percentage being the mass percentage, and incubated on ice for 30 minutes, and then centrifugally washed twice with the HBSS buffer. The collected” for “The collected”
competition rate [1],binding result [2],competition rate [3],competition rate [4],positive samples of 70 GBM samples [5],competition rate [6],competition rate [7],competition rate [8],EC50 [9],EC50 [10],OD450 nm at 0.0001 nM antibody [11],OD450 nm at 0.001 nM antibody [11],OD450 nm at 0.01 nM antibody [11],OD450 nm at 0.1 nM antibody [11],OD450 nm at 1 nM antibody [11],OD450 nm at 10 nM antibody [11],OD450 nm at 100 nM antibody [11],EC50 [12],Binder
-2%,no binding,71%,85%,24 samples,70%,66%,23%,2.9 nM,,,,,,,,,,"Murine anti-7E5 (antibody, V domains shown, Mouse hybridoma antibody; also called 7E5-2A9; murine anti-7E5-2) VH: EIQLQQSGPELVKPGASVKVSCKASGYSFTDYNMYWVKQSHGKSLEWIGYVDPSNGGTNYNQKFKGKATLTVDKSSSTAFMHLNSLTSEDSAVYYCARGFFDYWGQGTTLTVSS VL: DIVMTQSPSSLTVTAGEKVTMSCKSSQSLLNSGNQKNYLTWYQQKPGQPPKLLIYWASNRESGVPDRFTGSGSGKDFTLTISSVQAEDLAVYYCQNDYRYPVTFGAGTKLELK"
-3%,,73%,82%,24 samples,89%,79%,20%,3.1 nM,,,,,,,,,,"Murine anti-63A10 (antibody, V domains shown, Mouse hybridoma antibody; also called 63A10A7) VH: QVQLQQSGAELARPGASVKMSCKASGYTFISFTMHWVKQRPGQGLEWIGYINPNSGYTKYNQKFKDKATLTAGQSSSTAYMQLSSLTSEDSAVYYCTRGGGRGFAYWGQGTLVTVSA VL: DILMTQSPSSMSVSLGDTVTITCHASQDINSNIGWLQQKPGKSFKALIYHGTNLEDGVPSRFSGSGSGADYSLTISSLESEDFADYYCVQYAQFPFTFGSGTKLEIK"
-5%,,72%,80%,24 samples,81%,69%,13%,2 nM,,,,,,,,,,"Murine anti-64F1 (antibody, V domains shown, Mouse hybridoma antibody; also called 64F1F8) VH: QVQLQQSGAELARPGASVKMSCKASGYTFSSYTMHWAKQRPGQGLEWIGYINPSSGYTKYNQKFKDKATLTADKSSSTAYMQLSSLTSEDSIVYYCARGGGRGFAYWGQGTLVTVSA VL: QIVLTQSPAIMSASPGERVTMTCSASSSVSYMYWYQQKPGSSPRLLIYDTSNLASGVPVRFSGSGSGTSYSLTISRVEAEDAATYYCQQWSSYSLTFGAGTKLELK"
,,,,,,,,,180 nM,0.08 OD450,0.11 OD450,0.35 OD450,2.23 OD450,3.72 OD450,3.78 OD450,3.7 OD450,2.1 nM,"Chimeric antibody 64F1 (antibody, human IgG1, V domains shown, also called clone 64F1F8) VH: QVQLQQSGAELARPGASVKMSCKASGYTFSSYTMHWAKQRPGQGLEWIGYINPSSGYTKYNQKFKDKATLTADKSSSTAYMQLSSLTSEDSIVYYCARGGGRGFAYWGQGTLVTVSA VL: QIVLTQSPAIMSASPGERVTMTCSASSSVSYMYWYQQKPGSSPRLLIYDTSNLASGVPVRFSGSGSGTSYSLTISRVEAEDAATYYCQQWSSYSLTFGAGTKLELK"
-5%,,-3%,3%,,9%,-2%,67%,4.8 nM,,,,,,,,,,"Murine anti-75G7 (antibody, V domains shown, Mouse hybridoma antibody; also called 75G7C6) VH: EVQLQQSGPELVKPGASVKIPCKASGYTFTDYNMDWVKQSHGKSLEWIGDINPNNGDTIYNQKFKGKATLTVDKSSSTAYMELRSLTSEDTAVYYCARGDYDGYYPVYYAMDYWGQGTSVTVSS VL: ENVLTQSPAIMSASPGEKVTMTCRASSSVSSSYLHWYQQKSGASPKLWIFSTSNLAAGVPARFSGSGSGTSYSLTVSSVEAEDAATYYCQQYSGYPLTFGAGTKLELK"
